B1: monoclonal antibody DC8E8 (antibody, mouse IgG1, V domains shown)
VH: QVQLQQSGPELVKPGTSVKMPCKASGYIFTDYVISWVKQRTGQGLEWIGEIFPRSGSTYYNEKFKGKATLTADKSSNTAYMQLSSVTSEDSAVYFCARDYYGTSFAMDYWGQGTSVTVSS
VL: DIVMSQSPSSLAVSAGEKVTMSCKSSQSLLNSRTRKNYLAWYQQKPGQSPKLLIYWASTRESGVPDRFTGSGSGTDFTLTISSVQAEDLAVYYCKQSFYLRTFGGGTKLDIK
notes: Mouse IgG1 with kappa light chain, from hybridoma ATCC PTA-11994; also called mAb DC8E8

Assay [1] concerns the target B1. Briefly: competition ELISA; competitor: coated tauΔ(1-150;392-441)/4R. Background: In an ELISA, binding on a coated surface is turned into a signal by an enzyme label.
In assay [2] the target is B1. Briefly: competition ELISA against coated tauΔ(1-150;392-441)/4R.
The target in a further assay is T1, tauΔ(1-150; 392-441)/4R (human, UniProt P10636 468-708).
T1 construct: Also the transgene of SHR72 rats; also called tau 151-391/4R; misdisordered tau
Briefly: SPR (Biacore), DC8E8 captured, tau injected.

The target in assay [3] is T2, human full-length tau isoform 2N4R (human, UniProt P10636 1-758).
T2 construct: Recombinant, E. coli; also called tau 2N4R; tau441
Description: SPR (Biacore), DC8E8 captured, tau injected. On the technique in general: In SPR one partner is held on a chip, and binding of the other changes the refractive index at the surface.
Description: (§1) A BIACORE3000 instrument with a CMS sensor chip (Biacore AB, Uppsala) was used for the SPR assays. Amine-coupling reagents (EDC, NHS, ethanolamine pH 8.5), P20 detergent, and 10 mM sodium acetate pH 5.0 were obtained from Biacore AB. These experiments were done at 25° C. in PBS pH 7.4 with 0.005% of P20 (PBS-P) as the running buffer.
(§2) Kinetic rate constants were approximated globally, maximal responses were fitted locally, and the bulk response was set to zero.

For a further assay, the target named is tauΔ222-427 (human, UniProt P10636 1-758). Description: ELISA, coated tau (5 µg/ml), hybridoma supernate.
In another assay the target is tauΔ300-312 (human, UniProt P10636 1-758). Briefly: ELISA, coated tau (5 µg/ml), hybridoma supernate.
For a further assay, the target named is T3, tauΔ228-441 (human, UniProt P10636 1-544).
T3 construct: also called C-terminally truncated tau protein
Description: ELISA, coated tau (5 µg/ml), hybridoma supernate.

For another assay, the target named is tauΔ257-400 (human, UniProt P10636 1-758). Description: ELISA, coated tau (5 µg/ml), hybridoma supernate.
Another assay addresses tauΔ283-441 (human, UniProt P10636 1-599). Description: ELISA, coated tau (5 µg/ml), hybridoma supernate.
For a further assay, the target named is tauΔ137-441 (human, UniProt P10636 1-387). Description: ELISA, coated tau (5 µg/ml), hybridoma supernate.
The next assay concerns the target tauΔ306-400 (human, UniProt P10636 1-758). Briefly: ELISA, coated tau (5 µg/ml), hybridoma supernate.
In another assay the target is T4, tau peptide 301-330 (human).
T4 construct: Synthetic; Built from 2N4R numbering
T4 peptide: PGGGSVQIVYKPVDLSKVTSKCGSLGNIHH
Description: ELISA, coated peptide (5 µg/ml), hybridoma supernate.

The next assay has as its target T5, tau peptide 270-300 (human).
T5 construct: Synthetic; Built from 2N4R numbering
T5 peptide: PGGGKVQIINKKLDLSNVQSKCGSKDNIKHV
The description is as above.

The next assay addresses T6, tau peptide 240-270 (human).
T6 construct: Synthetic; Built from 2N4R numbering
T6 peptide: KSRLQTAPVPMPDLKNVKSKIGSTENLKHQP
The description is as above.

Where only a bound is given, the exact number is not on record here.

tauΔ222-427, sequence (P10636 other isoform, or with tags, fused parts or gaps mutant): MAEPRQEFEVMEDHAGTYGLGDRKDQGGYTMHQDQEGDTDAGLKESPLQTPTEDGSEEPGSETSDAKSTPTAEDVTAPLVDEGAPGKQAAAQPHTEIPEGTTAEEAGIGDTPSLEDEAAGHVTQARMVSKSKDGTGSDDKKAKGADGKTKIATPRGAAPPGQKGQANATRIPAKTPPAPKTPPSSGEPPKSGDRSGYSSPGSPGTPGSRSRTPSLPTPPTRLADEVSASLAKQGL
T2 sequence (P10636 other isoform, or with tags, fused parts or gaps limits assumed): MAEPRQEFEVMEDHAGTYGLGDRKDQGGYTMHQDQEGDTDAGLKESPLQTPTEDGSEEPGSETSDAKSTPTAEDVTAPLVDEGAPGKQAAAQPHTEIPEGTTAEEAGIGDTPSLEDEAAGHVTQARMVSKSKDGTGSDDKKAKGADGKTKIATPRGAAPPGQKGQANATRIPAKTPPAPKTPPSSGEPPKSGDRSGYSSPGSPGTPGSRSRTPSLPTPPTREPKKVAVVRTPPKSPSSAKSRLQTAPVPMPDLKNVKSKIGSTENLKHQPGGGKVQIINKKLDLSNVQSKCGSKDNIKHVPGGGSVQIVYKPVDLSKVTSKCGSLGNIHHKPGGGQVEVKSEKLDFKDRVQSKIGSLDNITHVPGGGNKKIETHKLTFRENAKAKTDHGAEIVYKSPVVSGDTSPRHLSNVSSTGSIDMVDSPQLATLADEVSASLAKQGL
tauΔ300-312, sequence (P10636 other isoform, or with tags, fused parts or gaps mutant): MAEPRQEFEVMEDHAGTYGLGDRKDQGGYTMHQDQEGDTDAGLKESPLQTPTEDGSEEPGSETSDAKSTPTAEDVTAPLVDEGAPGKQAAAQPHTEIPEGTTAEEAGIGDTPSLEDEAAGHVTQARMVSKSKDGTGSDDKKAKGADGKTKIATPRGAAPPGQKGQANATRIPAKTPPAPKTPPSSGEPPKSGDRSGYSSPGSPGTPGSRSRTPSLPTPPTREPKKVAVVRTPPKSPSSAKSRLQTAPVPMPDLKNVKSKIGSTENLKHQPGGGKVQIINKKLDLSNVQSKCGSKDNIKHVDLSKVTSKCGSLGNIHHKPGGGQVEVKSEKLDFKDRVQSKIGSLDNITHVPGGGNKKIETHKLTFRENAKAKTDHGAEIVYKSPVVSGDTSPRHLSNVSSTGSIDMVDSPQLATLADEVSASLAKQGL
T1 sequence (P10636 other isoform, or with tags, fused parts or gaps mutant limits assumed): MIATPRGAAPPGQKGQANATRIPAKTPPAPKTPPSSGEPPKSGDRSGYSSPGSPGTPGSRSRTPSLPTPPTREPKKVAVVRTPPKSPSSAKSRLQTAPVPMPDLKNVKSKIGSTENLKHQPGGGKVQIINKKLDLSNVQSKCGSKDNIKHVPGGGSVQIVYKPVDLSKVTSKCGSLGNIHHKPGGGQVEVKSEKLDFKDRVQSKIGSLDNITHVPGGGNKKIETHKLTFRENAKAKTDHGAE
T3 sequence (P10636 other isoform, or with tags, fused parts or gaps mutant): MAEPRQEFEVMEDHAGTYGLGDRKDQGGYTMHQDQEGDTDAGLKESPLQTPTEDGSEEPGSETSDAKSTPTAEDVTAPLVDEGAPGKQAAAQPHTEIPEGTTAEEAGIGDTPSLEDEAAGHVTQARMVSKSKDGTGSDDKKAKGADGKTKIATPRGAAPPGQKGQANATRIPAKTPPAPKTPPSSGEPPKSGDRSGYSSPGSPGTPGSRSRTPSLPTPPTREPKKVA
tauΔ257-400, sequence (P10636 other isoform, or with tags, fused parts or gaps mutant): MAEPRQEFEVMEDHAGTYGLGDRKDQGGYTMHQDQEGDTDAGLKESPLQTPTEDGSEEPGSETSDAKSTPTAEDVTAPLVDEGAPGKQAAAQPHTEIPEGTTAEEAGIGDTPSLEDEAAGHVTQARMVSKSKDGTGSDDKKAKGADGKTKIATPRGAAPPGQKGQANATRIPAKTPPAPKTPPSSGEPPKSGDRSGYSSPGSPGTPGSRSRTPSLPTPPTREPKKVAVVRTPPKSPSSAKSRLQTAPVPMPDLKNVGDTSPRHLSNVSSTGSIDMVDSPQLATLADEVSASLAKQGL
tauΔ306-400, sequence (P10636 other isoform, or with tags, fused parts or gaps mutant): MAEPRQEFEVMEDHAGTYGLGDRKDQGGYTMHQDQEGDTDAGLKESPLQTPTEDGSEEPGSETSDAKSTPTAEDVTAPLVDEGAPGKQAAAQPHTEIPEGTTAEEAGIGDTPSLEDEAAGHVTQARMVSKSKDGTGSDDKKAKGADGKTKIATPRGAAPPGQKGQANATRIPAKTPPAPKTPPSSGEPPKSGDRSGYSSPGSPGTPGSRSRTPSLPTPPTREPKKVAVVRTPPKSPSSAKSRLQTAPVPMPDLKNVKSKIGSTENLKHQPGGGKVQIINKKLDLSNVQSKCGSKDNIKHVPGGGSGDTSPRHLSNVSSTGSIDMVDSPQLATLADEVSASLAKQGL
tauΔ137-441, sequence (P10636 other isoform, or with tags, fused parts or gaps mutant): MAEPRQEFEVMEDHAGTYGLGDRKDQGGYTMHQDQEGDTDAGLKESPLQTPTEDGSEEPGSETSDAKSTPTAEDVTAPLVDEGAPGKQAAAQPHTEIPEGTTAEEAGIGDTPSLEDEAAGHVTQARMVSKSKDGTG
tauΔ283-441, sequence (P10636 other isoform, or with tags, fused parts or gaps mutant): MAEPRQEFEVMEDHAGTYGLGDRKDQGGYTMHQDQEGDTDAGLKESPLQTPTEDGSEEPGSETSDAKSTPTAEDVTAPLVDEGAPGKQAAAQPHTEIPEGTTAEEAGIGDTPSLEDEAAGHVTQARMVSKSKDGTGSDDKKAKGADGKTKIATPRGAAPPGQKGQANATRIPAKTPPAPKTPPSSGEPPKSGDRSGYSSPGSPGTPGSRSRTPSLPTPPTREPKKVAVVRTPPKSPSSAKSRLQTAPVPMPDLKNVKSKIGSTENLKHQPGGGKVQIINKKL
Description for tau peptide 240-270: (§3) Microtiter plates were coated overnight at 37° C. with either recombinant tau proteins or with tau peptides (5 μg/ml in PBS, 50 μl/well). […] Bound monoclonal antibody was detected with sheep anti-mouse Ig HRP-conjugated (DAKO). The reaction was developed with orthophenylenediamine Solution as a peroxidase substrate and stopped with 50 μl of 2 M H₂SO₄. Absorbance was measured at 492 nm using a Multiscan MCC/340 ELISA reader (Labsystems). Readouts with an absorbance value of at least twice the value of the negative controls (PBS) were considered positive.
Description for tau peptide 270-300: as §3
Description for tau peptide 301-330: as §3
Description for tauΔ(1-150; 392-441)/4R: as §1, §2
Description for tauΔ137-441: as §3
Description for tauΔ222-427: as §3
Description for tauΔ228-441: as §3
Description for tauΔ257-400: as §3
Description for tauΔ283-441: as §3
Description for tauΔ300-312: as §3
Description for tauΔ306-400: as §3

In the case of DAIKHVPGGGS (Alanine mutant of tau 295-305) [peptide DAIKHVPGGGS], the binding result in [1] was “binds”. Consider GWSIHSPGGGSC (Designed peptide) [designer therapeutic epitope 1 GWSIHSPGGGSC], for which the binding result in assay [1] is reported as “binds”. Turning to TENLKHQPGGGK [tau peptide TENLKHQPGGGK], in assay [1], the binding result was “binds”.

As to ANIKHVPGGGS (Alanine mutant of tau 295-305) [peptide ANIKHVPGGGS], the binding result in assay [1] is on record as “binds”. Take DNIKAVPGGGS (Alanine mutant (H299A) of tau 295-305) [peptide DNIKAVPGGGS]: in assay [2], the binding result is reported as “no binding (tested: 160 µM)”.

With HQPGGG [tau peptide HQPGGG], in assay [1], the binding result is reported as “binds”. The same measure, in the same setting: for HVPGGG [tau peptide HVPGGG] the value was “binds”; for HKPGGG [tau peptide HKPGGG], “binds”. DNIKHVPGGGSVQIVYKPV (also called 19-mer) [tau peptide DNIKHVPGGGSVQIVYKPV]: the binding result in assay [1] is “binds”. The same measure, in the same setting: for DNAKHVPGGGS (Alanine mutant of tau 295-305) [peptide DNAKHVPGGGS] the value was “binds”. Turning to SVFQHLPGGGSC (Designed peptide) [designer therapeutic epitope 2 SVFQHLPGGGSC], the “affinity for DC8E8 relative to tauΔ(1-150; 392-441)4R” value in [1] was greater than 10 fold.

As to DNIKHAPGGGS (Alanine mutant of tau 295-305) [peptide DNIKHAPGGGS], the binding result in [1] was “binds”. Still for that read-out and setting: for ENLKHQPGGGKVQIINKKLDLSNVQSKCGSKDNIKHVPGGGS (also called 42-mer) [tau peptide ENLKHQPGGGKVQIINKKLDLSNVQSKCGSKDNIKHVPGGGS] the value was “binds”; for KHVPGGGSV [peptide KHVPGGGSV], “binds”.

Turning to HQPGG [tau peptide HQPGG], the binding result in assay [2] is “no binding”. Same read-out and setting: for HVPGG [tau peptide HVPGG] the value was “no binding”. On to B1, for which the “fold lower kOFF of four-repeat tau species” value (in the assay with tauΔ(1-150; 392-441)/4R; in [3]) was 10 fold throughout. The binding result with tauΔ222-427, in the assay with tauΔ300-312, with tauΔ228-441, in the assay with tauΔ257-400, with tauΔ283-441 and in the assay with tauΔ137-441 was “no binding” in each case. Further, the binding result with tauΔ306-400, in the assay with tau peptide 301-330, in the assay with tau peptide 270-300 and with tau peptide 240-270 was “no binding” throughout. Take QPGGG [tau peptide QPGGG]: the binding result in [2] is “no binding”. For VPGGG [tau peptide VPGGG], the binding result in [2] is “no binding”. As for HHKPGGG [tau peptide HHKPGGG], in assay [1], the binding result was “binds”.

On to IKHVPGGGS [peptide IKHVPGGGS], for which, in [1], the binding result is reported as “binds”.

In the case of KHVPGGG [tau peptide KHVPGGG], the binding result in assay [1] is “binds”.

With KHQPGGG [tau peptide KHQPGGG], in assay [1], the binding result is recorded as “binds”. On to THVPGGG [tau peptide THVPGGG], for which the binding result in [1] was “binds”. On the same count and under the same terms, with DNIAHVPGGGS (Alanine mutant of tau 295-305) [peptide DNIAHVPGGGS] the entry was “binds”; with NIKHVPGGGS [peptide NIKHVPGGGS], “binds”.

B2: peptide NIKAVPGGGS (peptide)
peptide: NIKAVPGGGS
notes: Tau-derived peptide with histidine 299 changed to alanine
As for B2, the binding result in [2] was “no binding (tested: 40 µM)”. As for HVPGGGSVQ [peptide HVPGGGSVQ], the binding result in assay [1] is “binds”.

Values taken from patent US20220010004A1 (published 2022).
